Data published in PMC12954864.

Target: GST-tag (glutathione S-transferase) freed from GST-ΔN-ATAD2B
Assay: SEC; Superdex 200 Increase 10/300 GL (ÄKTAprime), ATAD2B sample from E. coli against a molecular-weight standard mixture; peak 1 ~9 ml near thyroglobulin (670 kDa), peak 2 ~15 ml before ovalbumin (44 kDa)

- stoichiometry N: 2
Substance: GST-tag (glutathione S-transferase) freed from GST-ΔN-ATAD2B
